Substrate: O=[N+]([O-])c1ccccc1O[C@@H]1O[C@H](CO)[C@H](O)[C@H](O)[C@H]1O
Experiment: purified protein
Assay type: biochemical, Kluyveromyces lactis
Conditions: free enzyme, 37 °C, assay buffer 50 mM potassium phosphate, 1 mmol/L MgCl2, pH 6.5 (general activity assay), substrate range printed as 6.3-31.5 μmol/L, which conflicts with the mmol/L unit of Km

B1: lactase (DSM Maxilact 5000) (Kluyveromyces lactis NRRL Y-1140) (protein)
chain: MSCLIPENLRNPKKVHENRLPTRAYYYDQDIFESLNGPWAFALFDAPLDAPDAKNLDWETAKKWSTISVPSHWELQEDWKYGKPIYTNVQYPIPIDIPNPPTVNPTGVYARTFELDSKSIESFEHRLRFEGVDNCYELYVNGQYVGFNKGSRNGAEFDIQKYVSEGENLVVVKVFKWSDSTYIEDQDQWWLSGIYRDVSLLKLPKKAHIEDVRVTTTFVDSQYQDAELSVKVDVQGSSYDHINFTLYEPEDGSKVYDASSLLNEENGNTTFSTKEFISFSTKKNEETAFKINVKAPEHWTAENPTLYKYQLDLIGSDGSVIQSIKHHVGFRQVELKDGNITVNGKDILFRGVNRHDHHPRFGRAVPLDFVVRDLILMKKFNINAVRNSHYPNHPKVYDLFDKLGFWVIDEADLETHGVQEPFNRHTNLEAEYPDTKNKLYDVNAHYLSDNPEYEVAYLDRASQLVLRDVNHPSIIIWSLGNEACYGRNHKAMYKLIKQLDPTRLVHYEGDLNALSADIFSFMYPTFEIMERWRKNHTDENGKFEKPLILCEYGHAMGNGPGSLKEYQELFYKEKFYQGGFIWEWANHGIEFEDVSTADGKLHKAYAYGGDFKEEVHDGVFIMDGLCNSEHNPTPGLVEYKKVIEPVHIKIAHGSVTITNKHDFITTDHLLFIDKDTGKTIDVPSLKPEESVTIPSDTTYVVAVLKDDAGVLKAGHEIAWGQAELPLKVPDFVTETAEKAAKINDGKRYVSVESSGLHFILDKLLGKIESLKVKGKEISSKFEGSSITFWRPPTNNDEPRDFKNWKKYNIDLMKQNIHGVSVEKGSNGSLAVVTVNSRISPVVFYYGFETVQKYTIFANKINLNTSMKLTGEYQPPDFPRVGYEFWLGDSYESFEWLGRGPGESYPDKKESQRFGLYDSKDVEEFVYDYPQENGNHTDTHFLNIKFEGAGKLSIFQKEKPFNFKISDEYGVDEAAHACDVKRYGRHYLRLDHAIHGVGSEACGPAVLDQYRLKAQDFNFEFDLAFE
notes: commercial enzyme preparation, free (not immobilised)
Km: 25.4 mM | kcat: 1182.9 s⁻¹

Source: PMC3709774, “Preparation of Novel Poly(hydroxyethyl methacrylate-coglycidyl methacrylate)-Grafted Core-Shell Magnetic Chitosan Microspheres and Immobilization of Lactase” (International Journal of Molecular Sciences, 2013)
